We go through one molecule from paper PMC3033579.

The target in one data set is T1, SSB (Bacillus subtilis, UniProt P37455 1-172).
T1 sequence: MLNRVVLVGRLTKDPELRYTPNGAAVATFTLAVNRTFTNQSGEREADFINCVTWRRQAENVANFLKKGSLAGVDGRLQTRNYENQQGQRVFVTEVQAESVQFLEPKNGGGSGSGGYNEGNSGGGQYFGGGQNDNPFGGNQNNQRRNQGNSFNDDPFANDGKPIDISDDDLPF
Description: EMSA. A general note: Mobility shift assays separate free from complexed probe on a gel.

The next data set concerns the target T2, DnaD (Bacillus subtilis, UniProt P39787 1-232).
T2 sequence: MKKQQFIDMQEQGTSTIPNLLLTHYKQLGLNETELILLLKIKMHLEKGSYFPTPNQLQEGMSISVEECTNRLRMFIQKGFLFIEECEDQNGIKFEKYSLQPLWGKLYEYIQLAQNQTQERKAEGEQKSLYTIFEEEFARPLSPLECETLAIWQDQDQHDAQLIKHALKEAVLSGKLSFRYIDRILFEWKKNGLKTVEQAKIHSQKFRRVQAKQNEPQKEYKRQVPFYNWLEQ
Description: EMSA.

With TTACACAGTAACTCATATGCTTCGCTATTACGCC (ssDNA) [34mer oligonucleotide], the binding signal was 600 fold higher affinity than Cd and DnaD in the data set with SSB; 600 fold lower affinity than SSB with DnaD.
